The values below come from patent US20240148892A1.

In assay [1] the target is human full-length B7H3 expressed on MCF-7 cells (human) (UniProt Q5ZPR3). In words: cell-based or functional assay.
Assay [2] has the same target. In words: flow cytometry (FACS) on MCF-7 cells expressing human full-length B7H3; negative control. (A flow cytometer gives signals particle by particle.)
For assay [3], the target named is cynomolgus monkey B7H3 on transfected FlpinCHO cells (cynomolgus monkey). In words: flow cytometry (FACS) on FlpinCHO cells transfected with cynomolgus monkey B7H3; negative control.

human full-length B7H3 expressed on MCF-7 cells (human), sequence (Q5ZPR3 29-534 limits assumed): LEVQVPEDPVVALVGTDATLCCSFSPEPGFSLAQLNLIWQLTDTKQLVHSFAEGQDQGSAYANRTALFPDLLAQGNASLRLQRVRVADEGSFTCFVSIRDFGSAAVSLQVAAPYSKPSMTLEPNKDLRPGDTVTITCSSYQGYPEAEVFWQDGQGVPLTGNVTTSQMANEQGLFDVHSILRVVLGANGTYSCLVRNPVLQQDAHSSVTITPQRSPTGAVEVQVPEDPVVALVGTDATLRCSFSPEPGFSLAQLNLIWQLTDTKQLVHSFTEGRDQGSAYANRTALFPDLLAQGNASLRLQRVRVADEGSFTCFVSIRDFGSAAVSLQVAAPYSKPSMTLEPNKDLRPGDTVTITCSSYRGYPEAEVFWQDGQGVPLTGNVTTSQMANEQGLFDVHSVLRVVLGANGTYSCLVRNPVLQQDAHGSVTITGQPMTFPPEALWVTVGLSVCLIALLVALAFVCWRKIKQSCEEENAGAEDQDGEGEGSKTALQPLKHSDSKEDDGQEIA

Turning to hIgG1 isotype (antibody), in assay [1], the Antibody internalization Maximum MFI, MCF-7 cells, high-content imaging (negative control) stood at 21 MFI. For the same substance, the Maximum MFI in assay [2] was 47.8 MFI; in assay [3], 6.67 MFI.
